Measurements as given in US20090158455A1, “COMPOSITIONS AND METHODS FOR MODULATING LYSINE PRODUCTION” (priority 2005, published 2009).

Assays:
Type in all cases: biochemical
[1] = target: T1, Arabidopsis LL-DAP-AT (At4g33680) (Arabidopsis thaliana, UniProt Q93ZN9); experiment: Quantitative reverse assay coupled to Ddh, pure recombinant LL-DAP-AT; conditions: 30° C.
T1 construct: The recombinant protein lacks the first 39 amino acids of the At4g33680 protein; hexa-His (N); S-TAG (N); made in house; host or cells: E. coli BL21-CodonPlus-RIPL
Protocol: (§1) For enzyme assays of crude proteins, extracts were prepared by grinding tissue in liquid nitrogen with 100 mM HEPESKOH (pH 7.6), followed by centrifugation at 10,000 g for 15 min, and then buffer exchange using an Amicon Ultra 30,000 MWCO filter. […] Reactions were incubated at 30° C. and the ΔA (440 nm) measured continuously. […] The reaction was incubated at 30° C., and the decrease in A340 was measured. […] The reaction was run to completion, determined by monitoring the increase in A340.
For this reason quantitative coupled assays were developed to assess the enzyme activity in both the reverse and forward directions. […] The reaction sequence is shown in Scheme 1.

[2] = target: T1, Arabidopsis LL-DAP-AT (At4g33680); experiment: Quantitative forward assay coupled to 2-OG dehydrogenase, pure recombinant LL-DAP-AT; conditions: for Vmax: forward assay; for Forward (biosynthetic) activity disfavored compared with the reverse activity: initial rate, forward versus reverse
Protocol: FIG. 4. […] The forward assay was conducted in two steps. […] The aminotransferase was assayed in the second step.
as §1, with “A340. […] The kinetic constants were calculated by nonlinear regression analysis using GraphPad Prizm version 4.03.” for “A340.”
The overall reaction series is shown in Scheme 2.
Thio-NADH has an absorbance maximum at 398 nm, which can be discerned from NADPH, which has an absorbance maximum at 340 nm. FIG. 4 illustrates such a reaction. […] Two plots are shown using 0.55 and 0.055 mM m-DAP.

LL-DAP transaminase [3] = experiment: Quantitative forward assay of purified microbial LL-DAP transaminases
Protocol: (§2) Enzyme assays were performed as described above in Examples I and II.
(§3) The catalytic properties of sll0480, BF2643, Dhaf—3980, MTH52, and SfumDRAFT0821 were studied in greater detail using purified enzymes to determine their kinetic constants using quantitative forward and reverse assays.

LL-DAP transaminase [4] = experiment: Quantitative reverse assay of purified microbial LL-DAP transaminases; conditions: reverse
Protocol: as §2, §3

LL-DAP-AT (At4g33680) = target: T2, LL-DAP-AT (At4g33680) (Arabidopsis thaliana, UniProt Q93ZN9); experiment: Reverse OAB assay of pure recombinant LL-DAP-AT, temperature and pH optimum; conditions: data not shown
T2 construct: The recombinant protein lacks the first 39 amino acids of the At4g33680 protein; hexa-His (N); S-TAG (N); made in house; host or cells: E. coli BL21-CodonPlus-RIPL
Protocol: as §1, with “A340. […] The kinetic constants were calculated by nonlinear regression analysis using GraphPad Prizm version 4.03.” for “A340.”
The kinetic properties of the pure recombinant At4g33680 enzyme were studied using several different assays. […] Most aminotransferases require pyridoxal phosphate as a cofactor (Liepman and Olsen, 2004). The Lys residue at position 305 in the At4g33680 protein is predicted to be the pyridoxal phosphate ligand. […] The enzyme was also found to show a temperature optimum of 36° C. and a pH optimum of 7.6 when HEPESKOH buffer was used, and 7.9 when Tris HCl buffer was used (data not shown).

CT390 [5] = target: T3, CT390 (Chlamydia trachomatis serovar D, UniProt O84395); experiment: Quantitative reverse assay of pure CT390; conditions: reverse assay, saturating substrates
T3 construct: His-Tag (N); made in house; host or cells: E. coli

CT390 [6] = target: T3, CT390; experiment: Quantitative forward assay of pure CT390; conditions: saturating substrates
Protocol: All enzyme assays were carried out essentially as described in Example I. Incubation temperature was 30° C. Kinetic constants were determined by varying substrate concentrations while keeping the co-substrate level constant at the concentration described below. Kinetic data were analyzed by non-linear regression analysis using GraphPad Prizm Version 4.03.
Quantitative assay of the physiologically forward reaction was carried out sequentially in a pre-reaction to generate THDP from m-DAP followed by an LL-DAP aminotransferase assay. […] The pre-reaction was run to completion, monitored by the increase in absorbance at 340 nm resulting from NADPH formation. The aminotransferase reaction was monitored at 398 nm to measure the formation of thioNADH. […] Subsequently, the aminotransferase assay was initiated by addition of CT390, bringing the total reaction volume to 1 mL.

Molecule	Vmax ([1]; pH 7.5)	Vmax ([1]; pH 7.5, listed as LL-DAP-AT)	Vmax [2]	Vmax ([2]; listed as LL-DAP-AT)	Forward (biosynthetic) activity disfavored compared with the reverse activity [2]	Forward (biosynthetic) activity disfavored compared with the reverse activity ([2]; listed as A. thaliana enzyme)	Vmax F (LL-DAP transaminase [3])	Vmax R (LL-DAP transaminase [4])	pH optimum (LL-DAP-AT (At4g33680); HEPESKOH buffer)	pH optimum (LL-DAP-AT (At4g33680); Tris HCl buffer)	Temperature optimum (LL-DAP-AT (At4g33680))	Vmax (CT390 [5])	Vmax (CT390 [6])
Arabidopsis LL-DAP-AT: LL-DAP aminotransferase encoded by Arabidopsis locus At4g33680 (SEQ ID NO: 7), recombinant protein (protein, listed as Arabidopsis thaliana) MSSTHQLVSSMISSSSSTFLAPSNFNLRTRNACLPMAKRVNTCKCVATPQEKIEYKTKVSRNSNMSKLQAGYLFPEIARRRSAHLLKYPDAQVISLGIGDTTEPIPEVITSAMAKKAHELSTIEGYSGYGAEQGAKPLRAAIAKTFYGGLGIGDDDVFVSDGAKCDISRLQVMFGSNVTIAVQDPSYPAYVDSSVIMGQTGQFNTDVQKYGNIEYMRCTPENGFFPDLSTVGRTDIIFFCSPNNPTGAAATREQLTQLVEFAKKNGSIIVYDSAYAMYMSDDNPRSIFEIPGAEEVAMETASFSKYAGFTGVRLGWTVIPKKLLYSDGFPVAKDFNRIICTCFNGASNISQAGALACLTPEGLEAMHKVIGFYKENTNIIIDTFTSLGYDVYGGKNAPYVWVHFPNQSSWDVFAEILEKTHVVTTPGSGFGPGGEGFVRVSAFGHRENILEACRRFKQLYK	22.3 ± 0.3 μmol min^−1 mg^−1 protein	22.3 μmol min^−1 mg^−1 protein	0.38 ± 0.01 μmol min^−1 mg^−1 protein	0.38 μmol min^−1 mg^−1 protein	50 fold	approximately 60 fold	0.8 µmol/min/mg	12 µmol/min/mg	7.6	7.9	36 °C	–	–
CT390: LL-DAP aminotransferase encoded by ct390 of Chlamydia trachomatis (SEQ ID NO: 9), His-Tag fusion (protein, listed as Chlamydia trachomatis, His-Tag) MKRNPHFVSLTKNYLFADLQKRVAQFRLENPQHTVINLSIGDTTQPLNASVAEAFASSIARLSSPTTCRGYGPDFGLPALRQKLSEDFYRGFVDAKEIFISDGAKVDLFRLLSFFGPNQTVAIQDPSYPAYLDIARLTGAKEIIALPCLQENAFFPEFPEDTHIDILCLCSPNNPTGTVLNKDQLRAIVHYAIEHEILILFDAAYSTFISDPSLPKSIFEIPDARFCAIEINSFSKPLGFAGIRLGWTVIPQELTYADGHFVIQDWERFLSTTFNGASIPAQEAGVAGLSILPQLEAIHYYRENSDLLRKALLATGFEVFGGEHAPYLWVKPTQANISDRDLFDFFLREYHIAITPGIGFGRSGSGFVRFSSLGKREDILAACERLQMAPALQS	–	–	–	–	–	–	–	–	–	–	–	0.59 μmol min^−1mg proteins^−1	0.38 μmol min^−1mg proteins^−1
